T1: FGF5 (human, UniProt P12034 21-268)
T1 sequence: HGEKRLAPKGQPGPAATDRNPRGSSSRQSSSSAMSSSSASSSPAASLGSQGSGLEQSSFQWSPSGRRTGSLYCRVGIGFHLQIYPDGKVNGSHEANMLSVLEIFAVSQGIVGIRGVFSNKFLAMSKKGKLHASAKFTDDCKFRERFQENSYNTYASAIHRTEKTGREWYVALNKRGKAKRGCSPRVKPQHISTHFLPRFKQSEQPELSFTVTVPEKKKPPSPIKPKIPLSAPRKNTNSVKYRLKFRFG

T2: FGF6 (human, UniProt P10767 38-208)
T2 sequence: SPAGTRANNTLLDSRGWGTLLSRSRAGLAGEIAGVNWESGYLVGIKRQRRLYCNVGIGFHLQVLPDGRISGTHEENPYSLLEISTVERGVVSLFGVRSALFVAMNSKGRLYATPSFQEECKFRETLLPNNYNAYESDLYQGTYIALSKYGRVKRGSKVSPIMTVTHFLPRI

T3: FGF4 (human, UniProt P08620 31-206)
T3 sequence: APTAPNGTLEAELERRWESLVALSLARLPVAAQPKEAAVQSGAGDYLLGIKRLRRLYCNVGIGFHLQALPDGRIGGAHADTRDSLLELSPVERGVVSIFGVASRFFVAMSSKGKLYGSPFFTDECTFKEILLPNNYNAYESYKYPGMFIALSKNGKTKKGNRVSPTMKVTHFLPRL

B1: F5f1 (structured_RNA)
RNA: GGGCUAGCUGAUCGUACCUCUCCGUACUGACCUACAGAGCGACAUACUAGUGUAUCCAGAUACUAACAGCUAACACCC
modifications: 2'-fluoro pyrimidines (all C and U)
B2: F5f3_56 (structured_RNA)
RNA: GGGCGACCUAGCGUGAAUCCAACACGCUUGACAUACAAACUGCAUCCAGAUCGCCC
modifications: 2'-fluoro pyrimidines (all C and U)
B3: F5f1_56 (structured_RNA)
RNA: GGGCGACCUCUCCGUACUGACCUACAGAGCGACAUACUAGUGUAUCCAGAUCGCCC
modifications: 2'-fluoro pyrimidines (all C and U)
B4: F5f3 (structured_RNA)
RNA: GGGCUAGCUGAUCGUACCUAGCGUGAAUCCAACACGCUUGACAUGCAAACUGCAUCCAGAUACUAACAGCUAACACCC
modifications: 2'-fluoro pyrimidines (all C and U)

What was measured:
FGF5 = molecular target: T1, FGF5; experiment: SPR; 4 eq low-MW heparin; SPR (BIAcore X): 20 mM Tris-HCl pH 7.4, 200 mM NaCl, 5 mM MgCl2, 5 mM CaCl2, 0.05% Tween20, 4 eq low-MW heparin; temperature not stated; conditions: protein: commercial; label: none; multi-branched loop (predicted)
FGF1 = FGF1 (human, UniProt P05230 16-155); experiment: SPR; 100 nM protein, 4 eq low-MW heparin; SPR (BIAcore X): 20 mM Tris-HCl pH 7.4, 200 mM NaCl, 5 mM MgCl2, 5 mM CaCl2, 0.05% Tween20, 4 eq low-MW heparin; temperature not stated; conditions: protein: commercial; label: none; multi-branched loop (predicted)
FGF1, sequence (P05230 16-155): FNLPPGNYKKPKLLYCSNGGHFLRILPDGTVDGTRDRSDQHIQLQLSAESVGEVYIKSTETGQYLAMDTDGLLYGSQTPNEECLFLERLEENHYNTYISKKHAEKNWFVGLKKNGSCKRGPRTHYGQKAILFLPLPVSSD

FGF2 = FGF2 (human, UniProt P09038 143-288); experiment: as above; conditions: protein: commercial; label: none; multi-branched loop (predicted)
FGF2, sequence (P09038 143-288): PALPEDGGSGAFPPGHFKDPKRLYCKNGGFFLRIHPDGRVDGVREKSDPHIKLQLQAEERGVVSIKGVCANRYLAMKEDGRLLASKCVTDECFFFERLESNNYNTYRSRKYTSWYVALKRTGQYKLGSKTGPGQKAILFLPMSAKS

[1] = molecular target: FGFR1alpha (IIIc)-Fc chimera (human, UniProt P11362 22-376); experiment: as above; conditions: protein: commercial; tags: Fc; chain copies: 2; label: none; multi-branched loop (predicted)
FGFR1alpha (IIIc)-Fc chimera, sequence (P11362 22-376, change not shown): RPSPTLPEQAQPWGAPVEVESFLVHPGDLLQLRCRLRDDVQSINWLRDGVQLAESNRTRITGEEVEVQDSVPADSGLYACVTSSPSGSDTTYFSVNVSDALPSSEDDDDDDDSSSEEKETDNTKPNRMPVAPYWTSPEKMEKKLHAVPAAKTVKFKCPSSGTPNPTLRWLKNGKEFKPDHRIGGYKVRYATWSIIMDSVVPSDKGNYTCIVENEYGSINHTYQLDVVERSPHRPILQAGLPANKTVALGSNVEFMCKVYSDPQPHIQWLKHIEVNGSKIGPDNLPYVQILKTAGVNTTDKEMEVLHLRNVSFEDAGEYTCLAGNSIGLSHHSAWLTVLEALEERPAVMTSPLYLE

FGF6 = molecular target: T2, FGF6; experiment: as above; conditions: protein: commercial; label: none; multi-branched loop (predicted)
FGF4 = molecular target: T3, FGF4; experiment: as above; conditions: protein: commercial; label: none; multi-branched loop (predicted)

Binder	Kd (FGF5) [nM]	binding result (FGF1)	binding result (FGF2)	binding result [1]	binding result (FGF6)	binding result (FGF4)
B1	0.7 ± 0.2	no binding	no binding	no binding	no binding	no binding
B2	0.92 ± 0.04					
B3	0.118 ± 0.003					
B4	0.57 ± 0.02					

From paper PMC7858594, “Specific inhibition of FGF5-induced cell proliferation by RNA aptamers”
